These results are taken from patent publication US20250066499A1 (SUNSHINE GUOJIAN PHARMACEUTICAL SHANGHAI, published 2025).

In assay [1] the target is T1, CD73-ND-his (human, UniProt P21589 27-317).
T1 construct: Biotinylated and captured on streptavidin in the ELISA
T1 sequence: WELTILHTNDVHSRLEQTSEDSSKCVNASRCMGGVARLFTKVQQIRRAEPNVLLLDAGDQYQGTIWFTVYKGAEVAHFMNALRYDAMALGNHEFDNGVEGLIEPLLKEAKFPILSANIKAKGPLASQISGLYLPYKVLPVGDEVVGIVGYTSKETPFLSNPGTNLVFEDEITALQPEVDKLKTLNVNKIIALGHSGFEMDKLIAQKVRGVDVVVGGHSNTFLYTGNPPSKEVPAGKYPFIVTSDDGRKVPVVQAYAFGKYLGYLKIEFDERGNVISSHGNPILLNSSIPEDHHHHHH
The assay can be described thus: ELISA, high plateau value (OD 450 nm). Here is the method:
(§1) The ELISA plates were coated with SA protein diluted to 1.5 μg/mL in coating buffer (50 mM carbonate coating buffer, pH 9.6) and incubated overnight at 4° C. The supernatant was discarded, and the plates were washed three times with PBST. Then, 5% skimmed milk powder prepared with PBS was added for blocking and the plates were incubated for 2 h at 37° C. After washing the plates once with PBST, CD73-biotin protein (prepared by biotinylating CD73-His protein according to the EZ-Link NHS-Biotin Reagent instructions) was diluted to 0.5 μg/mL and added at 100 μL/well for incubation at room temperature for 1 h. The plates were washed three times with PBST, and the prepared murine-derived monoclonal antibodies against human CD73 were serially diluted with 1% BSA buffer prepared with PBST and added to the ELISA plates at 100 μl/well. The plates were incubated at 37° C. for 1 h. After washing the plates three times with PBST, HRP-labeled goat anti-mouse IgG secondary antibody was added and the plates were incubated for 30 min at 37° C. After washing the plates three times with PBST, the residual droplets were patted dry on absorbent paper as much as possible. Then, 100 μl of TMB color developing solution was added to each well, and the plates were incubated in the dark at room temperature for 5 min for color development. Subsequently, 50 μl of 2M H₂SO₄ stop solution was added to each well to terminate the substrate reaction. The OD values were read at 450 nm using a multimode microplate reader to analyze the binding ability of the tested antibodies to the target antigen human CD73-His.
(§2) Referring to the experimental method in Example 3, the affinity of 48A11-HuV33 for various mutant proteins of CD73-ND was determined. The SA protein was diluted to 1 μg/mL for coating the ELISA plates, and the biotinylated CD73 protein (CD73-biotin) was used at a concentration of 0.1 μg/mL.
A general note: An ELISA detects its analyte on a solid surface through an enzyme-linked reagent.

Assay [2] deals with T2, CD73-ND-T183A (human, UniProt P21589 27-317).
T2 construct: Alanine mutant of CD73-ND
T2 sequence: T1 sequence with T183A
The assay can be described thus: ELISA, high plateau value (OD 450 nm). How it is done: as §1, §2

The target in assay [3] is T3, CD73-ND-N185A (human, UniProt P21589 27-317).
T3 construct: Alanine mutant of CD73-ND
T3 sequence: T1 sequence with N185A
The assay can be described thus: ELISA, high plateau value (OD 450 nm). How it is done: as §1, §2

The target in assay [4] is T4, CD73-ND-L181A (human, UniProt P21589 27-317).
T4 construct: Alanine mutant of CD73-ND
T4 sequence: T1 sequence with L181A
The assay can be described thus: ELISA, high plateau value (OD 450 nm). How it is done:
as §1, §2

The target of assay [5] is T1, CD73-ND-his. The assay can be described thus: ELISA, biotinylated antigen on streptavidin plate. How it is done:
as §1, §2

In assay [6] the target is T5, CD73-ND-N187A (human, UniProt P21589 27-317).
T5 construct: Alanine mutant of CD73-ND
T5 sequence: T1 sequence with N187A
The assay can be described thus: ELISA, biotinylated antigen on streptavidin plate. How it is done: as §1, §2

Assay [7] deals with T6, CD73-ND-V186A (human, UniProt P21589 27-317).
T6 construct: Alanine mutant of CD73-ND
T6 sequence: T1 sequence with V186A
Kind of assay: ELISA, biotinylated antigen on streptavidin plate. Here is the method:
as §1, §2

The EC50 is the concentration needed to bring the measured effect to its halfway point. A low value points to greater potency.

Substitutions are numbered along the chain they refer to.

B1: 48A11-HuV33 (antibody, human IgG4, V domains shown)
VH: QVQLVQSGAEVKKPGASVKVSCKASGYTFTSYWMHWVRQAPGQGLEWIGEINPSIGRTNYNEKFKSRVTLTRDTSTSTAYMELSSLRSEDTAVYYCARRVYGTMDYWGQGTLVTVSS
VL: DIQMTQSPSSLSASVGDRVTITCKASQDINSYLSWFQQKPGKSPKLLIYRANIWVDGVPSRFSGSGSGQDYTFTISSLQPEDIATYYCLQYDELYTFGQGTKVEIK
notes: Humanized
In the case of B1, the Top in assay [1] was determined as 1.98; in assay [2], 1.98; in assay [3], 1.9; in assay [4] it was 1.05. Besides, the EC50 amounted to 0.091 nM in assay [5], 0.105 nM in assay [6] and 0.16 nM in assay [7].
